Bridge positions count the residues as written; N and C are the ends. Square brackets hold non-standard residues; d marks the D form. Ends that are not written are not given here.
B1: Ac-Pro-Ser-Arg-Leu-(cyclo5)Glu-Glu-Glu-Leu-(cyclo9)Lys-Arg-Arg-Leu-Thr-Glu-NH2 (peptide)
peptide: Ac-PSRLEEELKRRLTE-NH2
modifications: lactam 5-9
SMILES: CC(=O)N1CCC[C@H]1C(=O)N[C@@H](CO)C(=O)N[C@@H](CCCNC(=N)N)C(=O)N[C@@H](CC(C)C)C(=O)N[C@H]1CCC(=O)NCCCC[C@@H](C(=O)N[C@@H](CCCNC(=N)N)C(=O)N[C@@H](CCCNC(=N)N)C(=O)N[C@@H](CC(C)C)C(=O)N[C@H](C(=O)N[C@@H](CCC(=O)O)C(N)=O)[C@@H](C)O)NC(=O)[C@H](CC(C)C)NC(=O)[C@H](CCC(=O)O)NC(=O)[C@H](CCC(=O)O)NC1=O
notes: Cyclic ALFA tag; also called SD15806
B2: Ac-Pro-Ser-Arg-Leu-Glu-(cyclo6)Lys-Glu-Leu-Arg-(cyclo10)Glu-Arg-Leu-Thr-Glu-NH2 (peptide)
peptide: Ac-PSRLEKELRERLTE-NH2
modifications: lactam 6-10
SMILES: CC(=O)N1CCC[C@H]1C(=O)N[C@@H](CO)C(=O)N[C@@H](CCCNC(=N)N)C(=O)N[C@@H](CC(C)C)C(=O)N[C@@H](CCC(=O)O)C(=O)N[C@H]1CCCCNC(=O)CC[C@@H](C(=O)N[C@@H](CCCNC(=N)N)C(=O)N[C@@H](CC(C)C)C(=O)N[C@H](C(=O)N[C@@H](CCC(=O)O)C(N)=O)[C@@H](C)O)NC(=O)[C@H](CCCNC(=N)N)NC(=O)[C@H](CC(C)C)NC(=O)[C@H](CCC(=O)O)NC1=O
notes: Cyclic ALFA tag; also called SD15805
B3: Ac-Pro-Ser-Arg-Leu-Glu-(cyclo6)Glu-Glu-Leu-Arg-(cyclo10)Lys-Arg-Leu-Thr-Glu-NH2 (peptide)
peptide: Ac-PSRLEEELRKRLTE-NH2
modifications: lactam 6-10
SMILES: CC(=O)N1CCC[C@H]1C(=O)N[C@@H](CO)C(=O)N[C@@H](CCCNC(=N)N)C(=O)N[C@@H](CC(C)C)C(=O)N[C@@H](CCC(=O)O)C(=O)N[C@H]1CCC(=O)NCCCC[C@@H](C(=O)N[C@@H](CCCNC(=N)N)C(=O)N[C@@H](CC(C)C)C(=O)N[C@H](C(=O)N[C@@H](CCC(=O)O)C(N)=O)[C@@H](C)O)NC(=O)[C@H](CCCNC(=N)N)NC(=O)[C@H](CC(C)C)NC(=O)[C@H](CCC(=O)O)NC1=O
notes: Cyclic ALFA tag; also called SD15341
B4: Ac-Ser-Arg-Leu-Glu-Glu-Glu-Leu-Arg-(cyclo9)Lys-Arg-Leu-Thr-(cyclo13)Glu-NH2 (peptide)
peptide: Ac-SRLEEELRKRLTE-NH2
modifications: lactam 9-13
SMILES: CC(=O)N[C@@H](CO)C(=O)N[C@@H](CCCNC(=N)N)C(=O)N[C@@H](CC(C)C)C(=O)N[C@@H](CCC(=O)O)C(=O)N[C@@H](CCC(=O)O)C(=O)N[C@@H](CCC(=O)O)C(=O)N[C@@H](CC(C)C)C(=O)N[C@@H](CCCNC(=N)N)C(=O)N[C@H]1CCCCNC(=O)CC[C@@H](C(N)=O)NC(=O)[C@H]([C@@H](C)O)NC(=O)[C@H](CC(C)C)NC(=O)[C@H](CCCNC(=N)N)NC1=O
notes: Cyclic ALFA tag; also called SD15193
B5: Ac-Ser-Arg-Leu-Glu-(cyclo5)Asp-Glu-Leu-Arg-(cyclo9)Lys-Arg-Leu-Thr-Glu-NH2 (peptide)
peptide: Ac-SRLEDELRKRLTE-NH2
modifications: lactam 5-9
SMILES: CC(=O)N[C@@H](CO)C(=O)N[C@@H](CCCNC(=N)N)C(=O)N[C@@H](CC(C)C)C(=O)N[C@@H](CCC(=O)O)C(=O)N[C@H]1CC(=O)NCCCC[C@@H](C(=O)N[C@@H](CCCNC(=N)N)C(=O)N[C@@H](CC(C)C)C(=O)N[C@H](C(=O)N[C@@H](CCC(=O)O)C(N)=O)[C@@H](C)O)NC(=O)[C@H](CCCNC(=N)N)NC(=O)[C@H](CC(C)C)NC(=O)[C@H](CCC(=O)O)NC1=O
notes: Cyclic ALFA tag; also called SD15196
B6: Ac-Ser-Arg-Leu-Glu-(cyclo5)Glu-Glu-Leu-(cyclo8)Lys-Arg-Arg-Leu-Thr-Glu-NH2 (peptide)
peptide: Ac-SRLEEELKRRLTE-NH2
modifications: lactam 5-8
SMILES: CC(=O)N[C@@H](CO)C(=O)N[C@@H](CCCNC(=N)N)C(=O)N[C@@H](CC(C)C)C(=O)N[C@@H](CCC(=O)O)C(=O)N[C@H]1CCC(=O)NCCCC[C@@H](C(=O)N[C@@H](CCCNC(=N)N)C(=O)N[C@@H](CCCNC(=N)N)C(=O)N[C@@H](CC(C)C)C(=O)N[C@H](C(=O)N[C@@H](CCC(=O)O)C(N)=O)[C@@H](C)O)NC(=O)[C@H](CC(C)C)NC(=O)[C@H](CCC(=O)O)NC1=O
notes: Cyclic ALFA tag; also called SD15192
B7: Ac-Pro-Ser-Arg-Leu-Glu-(cyclo6)Glu-Glu-Leu-Arg-(cyclo10)dLys-Arg-Leu-Thr-Glu-NH2 (peptide)
peptide: Ac-PSRLEEELR[dK]RLTE-NH2
modifications: lactam 6-10
SMILES: CC(=O)N1CCC[C@H]1C(=O)N[C@@H](CO)C(=O)N[C@@H](CCCNC(=N)N)C(=O)N[C@@H](CC(C)C)C(=O)N[C@@H](CCC(=O)O)C(=O)N[C@H]1CCC(=O)NCCCC[C@H](C(=O)N[C@@H](CCCNC(=N)N)C(=O)N[C@@H](CC(C)C)C(=O)N[C@H](C(=O)N[C@@H](CCC(=O)O)C(N)=O)[C@@H](C)O)NC(=O)[C@H](CCCNC(=N)N)NC(=O)[C@H](CC(C)C)NC(=O)[C@H](CCC(=O)O)NC1=O
notes: Cyclic ALFA tag; also called SD15808

Key:
[1] = target: T1, biotinylated NbALFA (NanoTag) (biotinylated (site not stated)); assay: SPR, Biacore T200, biotinylated NbALFA captured on Biotin CAPture chip, peptide as analyte, multi-cycle kinetics, 1:1 model, 25 C
T1 construct: Bought from NanoTag and captured on the SPR chip through biotin; also called NbALFA-nanobody; Nanobody
T1 sequence (VHH, as listed by the source): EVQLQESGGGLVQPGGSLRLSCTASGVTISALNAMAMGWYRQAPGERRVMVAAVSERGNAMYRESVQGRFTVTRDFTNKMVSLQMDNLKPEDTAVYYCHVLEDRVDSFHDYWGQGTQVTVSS
Method: Affinity measurements were performed using a Biacore T200 (GE Healthcare, Biacore T200 control Software 3.2). For affinity measurement, the Biotin CAPture kit, series S (Cytiva Europe, Cat. no. 28920234) was utilized. A freshly docked Biotin CAPture chip was rehydrated overnight in the instrument (standby mode). The following day, the chip surface was conditioned three times with regeneration solution (6 M guanidine-HCl, 0.25 M NaOH) for 60 s at 10 μL/min on flow cell (FC) 1 and FC2. Subsequently, the Biotin CAPture reagent (Cytiva Europe, Cat. no. 29423383) was applied for 300 s at 2 μL/min on FC1 and FC2, followed by capturing of 25 nM biotinylated NbALFA (NanoTag). The immobilization of the Nanobody was done for 180 s at 10 μL/min on FC2 followed by quenching of unbound streptavidin by 0.1 mM biocytin for 60 s and 30 μL/min on both flow cells. […] injections of 10 nM, 5 nM, 2.5 nM, 1.25 nM, 0.625 nM and 0 nM (blank control) of cyclic ALFA variants were performed over both flow cells for 120 s with a flow rate of 40 μL/min, followed by dissociation for 1500 s. After each cycle, the surface was regenerated for 120 s with 10 μL/min using regeneration solution. All measurements were performed at 25° C. using HBS-EP+ buffer (Cytiva Europe, Cat. no BR100669). The control responses from FC1 were subtracted by the sample measurement in FC2 (FC2−FC1) followed by subtraction of the 0 nM blank injection. Resulting binding curves of this multi cycle kinetic experiment were fitted using the Biacore T200 Evaluation Software 3.2 and a 1:1 binding model.

anti-ALFA VHH [2] = assay: dose-response curve fit (log(agonist) vs. response, variable slope), FIG. 2; assay format not described
anti-ALFA VHH, sequence (VHH, as listed by the source): as above

anti-ALFA VHH [3] = assay: dose-response curve fit (log(agonist) vs. response, variable slope), FIG. 2; assay format not described; unit from paragraph 98

Binder | Kd [1] [pM] | koff [1] [s⁻¹] | kon [1] [M⁻¹ s⁻¹] | Bottom (anti-ALFA VHH [2]) | LogEC50 (anti-ALFA VHH [2]) | Span (anti-ALFA VHH [2]) | Top (anti-ALFA VHH [2]) | EC50 (anti-ALFA VHH [3]) [pM]
B1 | 1430 | 4.94 | 3.44e+09 |  |  |  |  | 
B2 | 103 | 0.000964 | 9.33e+06 |  |  |  |  | 
B3 | 19.4 | 0.000361 | 1.86e+07 |  |  |  |  | 
B4 | 55.6 | 0.00109 | 1.95e+07 | 0.145 | 0.782 | 1.29 | 1.44 | 6050
B5 | 436 | 0.0079 | 1.81e+07 | 0.0167 | 2.58 | 1.41 | 1.43 | 377000
Ac-SRLEEELRRRLTE-NH2 (Linear ALFA tag; also called SD15197) [Ac-Ser-Arg-Leu-Glu-Glu-Glu-Leu-Arg-Arg-Arg-Leu-Thr-Glu-NH2] | 11.7 | 0.000593 | 5.05e+07 | 0.097 | 0.414 | 1.29 | 1.39 | 2600
B6 | 55.1 | 0.000577 | 1.05e+07 | 0.152 | 0.776 | 1.2 | 1.35 | 5980
SRLEEELRKRLTE (lactam 5-9; not fully specified (N-terminus, C-terminus), also called SD15194) [Ac-Ser-Arg-Leu-Glu-(cyclo5)Glu-Glu-Leu-Arg-(cyclo9)Lys-Arg-Leu-Thr-Glu-NH2] | 37.6 | 0.00067 | 1.78e+07 | 0.159 | 0.776 | 1.27 | 1.43 | 5980
B7 | 38 | 0.000513 | 1.35e+07 |  |  |  |  | 

From patent US20250154202A1 (published 2025)
